Experimental findings from paper PMC4258549 are described below.

Like-named read-outs stand apart in the source and are kept apart here.

What all share (assay): AlphaScreen or HTRF
Assay [1] has as its target biotinylated C4b (human).
In assay [2] the target is biotinylated C4b (human). The source holds these as a separate data set.
Assay [3] concerns the target myc-tagged Eap (Staphylococcus aureus) (UniProt Q99QS1).

Sequence of myc-tagged Eap (Staphylococcus aureus) (Q99QS1 31-476): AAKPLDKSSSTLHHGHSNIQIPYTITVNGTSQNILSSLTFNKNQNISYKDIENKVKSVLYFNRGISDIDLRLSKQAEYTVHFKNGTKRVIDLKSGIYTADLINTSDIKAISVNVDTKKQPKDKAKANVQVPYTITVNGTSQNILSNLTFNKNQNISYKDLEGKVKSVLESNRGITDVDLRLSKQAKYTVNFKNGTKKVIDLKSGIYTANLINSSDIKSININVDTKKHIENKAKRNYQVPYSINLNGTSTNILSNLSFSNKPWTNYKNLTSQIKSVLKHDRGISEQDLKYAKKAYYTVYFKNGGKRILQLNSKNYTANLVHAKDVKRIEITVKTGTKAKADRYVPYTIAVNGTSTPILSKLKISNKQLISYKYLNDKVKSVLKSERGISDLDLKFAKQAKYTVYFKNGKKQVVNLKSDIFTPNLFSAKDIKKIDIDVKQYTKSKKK
Sequence of C4b-binding protein (P04003 49-597): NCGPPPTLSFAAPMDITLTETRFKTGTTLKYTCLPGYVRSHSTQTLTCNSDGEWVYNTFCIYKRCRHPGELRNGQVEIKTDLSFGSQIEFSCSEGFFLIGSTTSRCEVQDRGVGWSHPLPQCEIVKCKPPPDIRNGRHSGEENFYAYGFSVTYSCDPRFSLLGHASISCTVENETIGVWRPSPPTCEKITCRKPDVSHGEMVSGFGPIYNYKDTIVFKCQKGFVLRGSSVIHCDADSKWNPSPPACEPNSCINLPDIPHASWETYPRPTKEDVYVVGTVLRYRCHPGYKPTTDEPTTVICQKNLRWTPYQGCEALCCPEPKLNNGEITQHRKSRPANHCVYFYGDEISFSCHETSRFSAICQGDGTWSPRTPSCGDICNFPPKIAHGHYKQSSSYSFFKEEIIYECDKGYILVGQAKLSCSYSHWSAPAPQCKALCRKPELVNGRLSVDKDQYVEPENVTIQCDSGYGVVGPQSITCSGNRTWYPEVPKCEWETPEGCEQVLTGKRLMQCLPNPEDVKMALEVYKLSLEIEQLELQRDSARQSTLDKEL
Sequence of C4b-binding protein (P20851 18-252): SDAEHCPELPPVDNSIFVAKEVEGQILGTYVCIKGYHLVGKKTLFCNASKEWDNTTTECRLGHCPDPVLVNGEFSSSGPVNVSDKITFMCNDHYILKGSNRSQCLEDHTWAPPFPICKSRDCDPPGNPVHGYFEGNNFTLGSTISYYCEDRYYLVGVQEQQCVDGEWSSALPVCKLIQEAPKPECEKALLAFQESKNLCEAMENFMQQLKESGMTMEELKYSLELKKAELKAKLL

Take “C2b fragment of complement component C2, recombinant (domain or fragment)”: in the assay with biotinylated C4b (human) [1], the IC50 amounted to 3500 nM.

“C4b-binding protein (from UniProt P04003 49-597; P20851 18-252) (complex)”: the IC50 with biotinylated C4b (human) [2] stood at 13 nM; with biotinylated C4b (human) [1], 21 nM.

In the case of C4c (complex), in assay [3], the Kd came out at 138 nM. On to “native complement component C4 (complex)”, for which the Kd in assay [3] worked out at 45 nM.
